# Test results reported in the supplement of paper PMC10266784.
# B1: library; numbered along this chain (parent)
# chain: MAAAAAAAAEQQSSNGPVKKSMREKAVERRSVNKEHNSNFKAGYIPIDEDRLHKTGLRGRKGNLAICVIILLFILAVINLIITLVIWAVIRIGPNGCDSMEFHESGLLRFKQVSDMGVIHPLYKSTVGGRRNENLVITGNNQPIVFQQGTTKLSVENNKTSITSDIGMQFFDPRTQNILFSTDYETHEFHLPSGVKSLNVQKASTERITSNATSDLNIKVDGRAIVRGNEGVFIMGKTIEFHMGGNMELKAENSIILNGSVMVSTTRLPSSSSGDQLGSGDWVRYKLCMCADGTLFKVQVTSQNMGCQISDNPCGNTH
# Variants of: B1
# Test: SGCB cell-surface expression functional score (HA stain, bin4 vs bin1, normalised to synonymous) (log10 ratio); higher = more cell-surface SGCB (functional)
# How it was run: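 The functional score is a log ratio of variant frequency in the highest versus the lowest intensity bin, expressed as a median over codons and duplicate transductions. Codon-saturation libraries of HA-tagged, YFP-fused human beta-sarcoglycan were transduced by lentivirus at MOI <0.1 into HEK293 cells stably expressing alpha-, gamma- and delta-sarcoglycan, and the cells were stained on ice with Alexa Fluor 647 anti-HA, fixed and sorted into four 5% intensity bins before amplicon sequencing. Synonymous variants were scaled to mean 0, SD 0.5 within each section.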
row,Variant,SGCB cell-surface expression functional score (log10)
1,V283F,-0.17
2,V283L,0.37
3,V283E,0.19
4,V283Q,-0.56
5,V283D,-0.63
6,V283C,0.36
7,V283S,-0.34
8,V283H,-0.24
9,V283W,-1.26
10,V283N,0.35
11,V283A,-0.15
12,V283G,0.12
13,V283P,-0.19
14,V283I,0.38
15,V283T,-0.38
16,V283Y,-0.55
17,V283M,0.74
18,V283R,-0.21
19,V283K,0.04
20,S272N,0.08
21,S272L,0.07
22,S272A,0.37
23,S272H,-0.05
24,S272P,0.21

row,Variant,SGCB cell-surface expression functional score (log10)
1,S272T,-0.52
2,S272C,-0.03
3,S272Q,0.34
4,S272M,-1.59
5,S272K,0.11
6,S272I,0.34
7,S272E,0.23
8,S272F,0.1
9,S272V,-0.14
10,S272R,0.18
11,S272G,0.1
12,S272D,-0.3
13,S272W,-0.13
14,S272Y,-0.29
15,S273R,-0.14
16,S273A,-0.68
17,S273E,0.08
18,S273G,-0.18
19,S273W,0.09
20,S273D,-0.07
21,S273T,-0.52
22,S273K,-0.55
23,S273Q,-0.2
24,S273V,-0.79

row,Variant,SGCB cell-surface expression functional score (log10)
1,S273L,-0.2
2,S273M,-1.46
3,S273C,-0.58
4,S273Y,0.11
5,S273P,-0.33
6,S273F,-1.31
7,S273I,0.05
8,S273H,-0.82
9,S273N,0.34
10,G278E,0.27
11,G278N,0.05
12,G278L,-0.05
13,G278R,0.05
14,G278Q,0.09
15,G278T,0.14
16,G278K,0.27
17,G278F,0.12
18,G278I,0.08
19,G278H,-0.29
20,G278C,0.13
21,G278M,0.18
22,G278D,0.31
23,G278P,0.23
24,G278S,0.15

row,Variant,SGCB cell-surface expression functional score (log10)
1,G278Y,0.08
2,G278A,0.15
3,G278W,0.16
4,G278V,0.32
5,D281T,-0.28
6,D281W,-1.51
7,D281A,-0.2
8,D281S,-0.22
9,D281P,-0.06
10,D281K,0.25
11,D281N,0.25
12,D281L,0.08
13,D281E,0.11
14,D281Y,0.16
15,D281F,0.45
16,D281I,-0.27
17,D281V,-0.16
18,D281R,-0.24
19,D281Q,0.18
20,D281G,-0.06
21,D281M,0.67
22,D281H,-1.11
23,D281C,-1.63
24,L277P,-1.21

row,Variant,SGCB cell-surface expression functional score (log10)
1,L277N,0.08
2,L277Q,-0.65
3,L277E,0.02
4,L277G,-0.19
5,L277F,-0.4
6,L277T,0.24
7,L277M,-0.2
8,L277I,0.41
9,L277D,-0.09
10,L277W,0.44
11,L277Y,-0.12
12,L277V,-0.49
13,L277A,-0.39
14,L277K,-1.8
15,L277S,-0.88
16,L277H,0.19
17,L277C,-1.31
18,L277R,-0.27
19,R284V,-1.16
20,R284P,-0.73
21,R284H,0.16
22,R284Q,0.05
23,R284K,-0.73
24,R284W,0.31

row,Variant,SGCB cell-surface expression functional score (log10)
1,R284G,-0.11
2,R284L,-0.57
3,R284I,-0.39
4,R284C,0.03
5,R284D,-1.55
6,R284S,-0.16
7,R284T,-0.97
8,R284N,-2.05
9,R284E,-1.26
10,R284Y,0.27
11,R284M,0.28
12,R284F,-0.51
13,R284A,0.33
14,W282C,-0.37
15,W282R,0.12
16,W282N,0.08
17,W282P,0.15
18,W282E,-0.07
19,W282V,0.04
20,W282I,0.19
21,W282Y,-0.08
22,W282L,0.08
23,W282Q,0.08
24,W282G,0.21

row,Variant,SGCB cell-surface expression functional score (log10)
1,W282H,0.22
2,W282F,0.36
3,W282S,-0.06
4,W282A,0.11
5,W282T,-0.1
6,W282K,-0.08
7,W282D,-0.17
8,W282M,-0.29
9,G274E,-0.62
10,G274K,-0.77
11,G274M,-0.11
12,G274R,-0.37
13,G274T,0.16
14,G274P,-0.32
15,G274C,-0.61
16,G274H,-1.17
17,G274S,0.17
18,G274V,-0.14
19,G274Q,-0.28
20,G274N,-0.16
21,G274A,-0.37
22,G274I,0.31
23,G274F,-0.16
24,G274D,-0.37

row,Variant,SGCB cell-surface expression functional score (log10)
1,G274L,0.03
2,G274Y,0.47
3,G274W,-0.13
4,P269T,0.41
5,P269V,0
6,P269Y,0.73
7,P269W,0.56
8,Y285F,-0.2
9,Y285G,-0.29
10,Y285M,-2.09
11,Y285V,-0.66
12,Y285N,-0.74
13,Y285E,-2.12
14,Y285K,-0.76
15,Y285Q,-0.54
16,Y285P,-0.24
17,Y285A,-0.68
18,Y285R,-1.05
19,Y285D,-0.09
20,Y285I,-1.22
21,Y285C,-0.68
22,Y285H,-0.04
23,Y285L,-0.66
24,Y285W,0.09

row,Variant,SGCB cell-surface expression functional score (log10)
1,Y285S,-0.49
2,Y285T,-1.86
3,S279R,0.16
4,S279E,0.22
5,S279F,-0.13
6,S279H,-0.04
7,S279A,0.39
8,S279C,0.08
9,S279D,0.24
10,S279Q,-0.19
11,S279N,0.15
12,S279K,-0.05
13,S279M,0.56
14,S279P,0.24
15,S279W,-0.2
16,S279Y,0.05
17,S279G,-0.07
18,S279I,-0.06
19,S279T,0.09
20,S279V,0.21
21,S279L,0.22
22,K286V,0.03
23,K286I,-0.67
24,K286F,-0.07

row,Variant,SGCB cell-surface expression functional score (log10)
1,K286T,-1.08
2,K286Y,-0.08
3,K286G,-0.81
4,K286L,-0.42
5,K286R,-1
6,K286S,-1.02
7,K286E,-0.77
8,K286N,-0.03
9,K286P,0.02
10,K286D,-1.17
11,K286C,-1.06
12,K286W,-0.09
13,K286H,-1.12
14,K286A,-0.54
15,K286Q,-0.61
16,K286M,0.29
17,Q276I,0.1
18,Q276H,-0.07
19,Q276K,0.11
20,Q276W,-1.29
21,Q276L,-0.3
22,Q276A,-0.49
23,Q276C,-1
24,Q276E,0.14

row,Variant,SGCB cell-surface expression functional score (log10)
1,Q276S,-0.37
2,Q276R,-0.17
3,Q276V,-0.56
4,Q276Y,0.02
5,Q276T,-1.1
6,Q276G,0.24
7,Q276P,-0.4
8,Q276F,-0.23
9,Q276N,-0.22
10,Q276D,0.34
11,Q276M,0.2
12,L287A,-0.96
13,L287F,-0.14
14,L287H,-0.31
15,L287D,-0.88
16,L287E,-0.2
17,L287C,0.06
18,L287I,0.07
19,L287G,-0.84
20,S270D,0.32
21,S270I,0.33
22,S270P,0
23,S270Q,0.47
24,S270E,-0.45

row,Variant,SGCB cell-surface expression functional score (log10)
1,S270F,1.1
2,S270Y,0.41
3,S270R,0.24
4,S270H,0.54
5,S270A,0.44
6,S270C,-0.02
7,S270G,0.32
8,S270T,0.45
9,S270V,0.24
10,S270M,0.77
11,S270K,-0.13
12,S270N,-0.08
13,S270L,0.64
14,S271V,0.17
15,S271W,-0.22
16,S271M,-0.03
17,S271N,0.21
18,S271E,-0.22
19,S271P,-0.56
20,S271F,0.35
21,S271K,0.11
22,S271H,-0.19
23,S271R,-0.24
24,S271Y,-0.26

row,Variant,SGCB cell-surface expression functional score (log10)
1,S271A,0
2,S271C,-0.06
3,S271D,-0.12
4,S271T,0.3
5,S271G,0.33
6,S271I,-0.19
7,S271L,0.07
8,S271Q,-0.08
9,D275C,-0.13
10,D275K,-0.82
11,D275M,0.18
12,D275R,-0.53
13,D275T,-0.08
14,D275W,-0.16
15,D275F,-0.57
16,D275V,0.12
17,D275G,0.01
18,D275E,-0.21
19,D275H,-0.97
20,D275P,-1.24
21,D275N,-0.12
22,D275Q,-1.58
23,D275I,-0.42
24,D275S,-0.06

row,Variant,SGCB cell-surface expression functional score (log10)
1,D275L,-0.13
2,D275Y,0.17
3,D275A,-0.05
4,G280M,0.03
5,G280T,-0.11
6,G280S,0.11
7,G280F,0.08
8,G280C,-0.75
9,G280D,-0.56
10,G280E,0.02
11,G280W,-0.37
12,G280R,-0.45
13,G280A,-0.01
14,G280K,0.07
15,G280Q,-0.26
16,G280L,-0.28
17,G280N,0.37
18,G280H,0.05
19,G280V,0.01
20,G280Y,-0.23
21,G280I,0.26
22,G280P,0.06
